Measurements published in IntAct's records for PubMed 29039417.

B1: BBSome complex member BBS5 (Homo sapiens), Q8N3I7 (parent)
chain: MSVLDALWEDRDVRFDLSAQQMKTRPGEVLIDCLDSIEDTKGNNGDRGRLLVTNLRILWHSLALSRVNVSVGYNCILNITTRTANSKLRGQTEALYILTKCNSTRFEFIFTNLVPGSPRLFTSVMAVHRAYETSKMYRDFKLRSALIQNKQLRLLPQEHVYDKINGVWNLSSDQGNLGTFFITNVRIVWHANMNDSFNVSIPYLQIRSIKIRDSKFGLALVIESSQQSGGYVLGFKIDPVEKLQESVKEINSLHKVYSASPIFGVDYEMEEKPQPLEALTVEQIQDDVEIDSDGHTDAFVAYFADGNKQQDREPVFSEELGLAIEKLKDGFTLQGLWEVMS
partner: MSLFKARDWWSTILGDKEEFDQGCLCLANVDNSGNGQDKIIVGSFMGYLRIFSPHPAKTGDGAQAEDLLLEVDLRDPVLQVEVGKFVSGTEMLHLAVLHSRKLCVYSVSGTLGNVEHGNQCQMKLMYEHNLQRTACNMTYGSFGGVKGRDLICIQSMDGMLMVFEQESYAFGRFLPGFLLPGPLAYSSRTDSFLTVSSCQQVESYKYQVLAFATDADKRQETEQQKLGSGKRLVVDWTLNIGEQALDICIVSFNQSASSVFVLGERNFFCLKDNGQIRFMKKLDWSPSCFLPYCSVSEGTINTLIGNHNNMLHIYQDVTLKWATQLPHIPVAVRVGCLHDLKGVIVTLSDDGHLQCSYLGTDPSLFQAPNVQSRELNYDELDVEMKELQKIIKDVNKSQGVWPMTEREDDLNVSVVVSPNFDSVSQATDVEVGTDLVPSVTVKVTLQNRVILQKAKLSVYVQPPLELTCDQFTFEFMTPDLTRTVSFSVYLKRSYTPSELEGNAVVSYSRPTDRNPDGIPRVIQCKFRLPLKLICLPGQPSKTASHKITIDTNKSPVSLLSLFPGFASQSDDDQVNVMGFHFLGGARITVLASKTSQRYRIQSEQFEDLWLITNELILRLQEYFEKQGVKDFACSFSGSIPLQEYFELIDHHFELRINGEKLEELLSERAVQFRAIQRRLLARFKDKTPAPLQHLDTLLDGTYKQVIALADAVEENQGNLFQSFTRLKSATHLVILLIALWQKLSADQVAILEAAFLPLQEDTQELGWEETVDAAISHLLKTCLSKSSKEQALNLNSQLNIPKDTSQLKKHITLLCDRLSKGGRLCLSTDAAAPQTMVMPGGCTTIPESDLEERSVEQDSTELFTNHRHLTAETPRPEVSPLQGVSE

Variants of: B1
Details: with pthb1_human BBS9, Q3SYG4

effect of a mutation on the interaction | Variant
with no effect | L4E
with no effect | L4K
with no effect | D5A
with no effect | D5E
with no effect | D5K
with no effect | A6E
with no effect | A6K
with no effect | L7A
with no effect | L7E
with no effect | L7K
with no effect | W8A
with no effect | W8E
with no effect | W8K
with no effect | E9A
with no effect | E9K
with no effect | D10A
with no effect | D10E
with no effect | D10K
disrupting interaction strength | R11A
disrupting interaction strength | R11E
with no effect | R11K
disrupting interaction strength | R11W
with no effect | D12A
with no effect | D12E
disrupting interaction strength | D12K
disrupting interaction strength | V13A

effect of a mutation on the interaction | Variant
disrupting interaction strength | V13E
disrupting interaction strength | V13K
with no effect | R14A
disrupting interaction strength | R14E
with no effect | R14K
disrupting interaction strength | F15A
disrupting interaction strength | F15E
with no effect | F15K
disrupting interaction strength | F15L
with no effect | D16A
with no effect | D16E
with no effect | D16K
disrupting interaction strength | D16S
disrupting interaction strength | L17A
disrupting interaction strength | L17E
disrupting interaction strength | L17K
disrupting interaction strength | L17R
with no effect | S18A
with no effect | S18E
with no effect | S18K
with no effect | A19E
with no effect | A19K
disrupting interaction strength | Q20A
with no effect | Q20E
with no effect | Q20K
with no effect | Q21A

effect of a mutation on the interaction | Variant
with no effect | Q21E
with no effect | Q21K
disrupting interaction strength | M22A
disrupting interaction strength | M22E
disrupting interaction strength | M22K
with no effect | K23A
with no effect | K23E
with no effect | T24A
with no effect | T24E
with no effect | T24K
with no effect | R25A
disrupting interaction strength | R25E
disrupting interaction strength | R25K
with no effect | P26A
disrupting interaction strength | P26E
with no effect | P26K
disrupting interaction strength | G27A
disrupting interaction strength | G27E
with no effect | G27K
disrupting interaction strength | G27R
disrupting interaction strength | E28A
disrupting interaction strength | E28K
disrupting interaction strength | V29A
with no effect | V29E
disrupting interaction strength | V29K
with no effect | L30A
